In US6818612B2, “Use of parvovirus capsid particles in the inhibition of cell proliferation and migration” (priority 1998, dated 2004):

What was measured:
[1] = tested on: human fetal liver cells; assay: Colony formation assay (Stem cell CFU kit, 11 day) of fetal liver cells; assay type: cell-based; conditions: FIG. 9
[2] = tested on: human fetal liver cells; assay: as above; assay type: cell-based; conditions: fetal liver cells
Source text: In a first set of experiments, it was discovered that B19 parvovirus capsids inhibit hematopoiesis and that these molecules could be used to reduce the overproduction of red blood cells, white blood cells, and blood platelets, as is experienced by patients suffering from hematological proliferative diseases, such as Polycytemia Vera. (See FIG. 1A). In a first set of experiments, fresh human fetal liver cells, umbilical cord blood cells, and bone marrow cells were contacted with recombinant B19 parvovirus capsids in a colony formation assay. The general features of a colony formation assay are depicted in FIG. 1B. The ability of the B19 parvovirus capsids to inhibit hematopoiesis was verified by the reduction of colony formation in the presence of the capsids, as compared to untreated control populations of cells. A more detailed description of these experiments is provided below.
To obtain fetal liver tissue, human fetuses 6-12 weeks of gestational age were obtained from legal abortions; the patients had volunteered to donate fetal tissue. Gestational age was estimated according to specific anatomical markers and is given as menstruational age. Abortions were performed with vacuum aspirations. Fetal liver was dissected under sterile conditions, placed in a sterile tube containing RPMI1640 and disintegrated by passage through a vinyl mesh to form a single cell suspension. Nucleated cells were then washed three times, counted and diluted in culture medium.
A commercial kit—the “Stem cell CFU kit” (GIBCO BRL, Life Technology Inc., NY, USA)—was used to perform the colony formation assays. The kit provides a semi-solid support that mimics the extracellular matrix produced by stromal cells. Other components included in the kit are: Iscove's modified Dulbecco's medium, modified fetal bovine serum, methylcellulose, 2-mercaptoethanol, conditioned medium and erythropoietin. The colonies that were formed in the assay were identified as BFU-E (burst forming unit-erythroid cells) with densely packed hemoglobonized cells, CFU-GM (colony forming units-granulocytes, macrophages) with arrangements of non-hemoglobinized cells, and CFU-GEMM (colony forming units-granulocytes, erythroid cells, macrophages, megakaryocytes) with hemoglobinized cells and small and large peripheral cells.
Recombinant B19 parvovirus empty capsid particles (Kajigaya et al., Proc Natl Acad Sci USA, 88:4646 (1991)) were prepared in a recombinant baculovirus-insect cell (Spodofera frugiperda) expression system. (Kajigaya et al., Proc Natl Acad Sci USA, 88:4646 (1991)). The isolated or purified capsids were diluted in buffer (20 mM Tris, 0.5M NaCl, pH 8.5) and 30 μL of each dilution was added to approximately 25×10^3 cells (50×10^3 for postnatal cells) in 100 μL of culture medium and incubated for 1 hour at 4° C. The mixtures were then transferred to incubation dishes and culture medium was added to a final volume of 0.5 ml per well. The cells were then incubated for 11 days in a humidified atmosphere at 5% CO2, and were scored for BFU-E, CFU-GM and CFU-GEMM derived colony formation.

[3] = tested on: human umbilical vein endothelial cells (HUVEC); assay: Endothelial cell proliferation assay (crystal violet, A540); assay type: cell-based
Method: To determine whether B19 parvovirus capsids can inhibit endothelial cell proliferation, assays were performed in which primary human umbilical vein endothelial cells, plated at a density of 1.5×10^4 cells per well in a 24 well plate, were incubated with B19 parvovirus capsids in the presence of 0.5% fetal calf serum+10.0 ng/ml basic fibroblast growth factor. The various B19 parvovirus capsid preparations (i.e., VP1/2 or capsids made with only VP1 or VP2) were added to each well on the following day and the cells with capsids were incubated for additional 72 hours. Cell proliferation was then determined by using a crystal violet dye assay. Accordingly, capsid treated cells were washed in PBS, fixed in 3.7% formaldehyde, and incubated with crystal violet. The dye was then removed by extensive washes with distilled water. The cell-associated crystal violet was solubilized with 10% acetic acid and quantified at absorbance 540 nm in an ELISA plate reader.
Thus, from left to right, the bars represent the absorbance at 540 nm with 0 μg/ml, 0.01 μg/ml, 0.1 μg/ml, 1.0 μg/ml, and 10.0 μg/ml. […] The standard deviation was within 10%.

[4] = tested on: HUVEC cells; assay: Endothelial cell migration assay (modified Boyden chamber); assay type: cell-based, human
Method: The effect of B19 parvovirus capsid preparations on cell migration was also determined. The migration assays were performed using a modified Boyden chamber assay (Neuroprobe, Inc.). Basic fibroblast growth factor (40 ng/ml) was added to stimulate migration of the HUVEC cells through a collagen 1 coated 8 μm pore size millipore filter. Cells were incubated for 60 min with the various B19 parvovirus capsid preparations (i.e., VP1/2 or capsids made with only VP1 or VP2) prior to conducting the migration assay. To perform the migration assay, the Boyden chamber was incubated for 4.5 h at 37° C. in a 10% CO2 atmosphere. The filters were subsequently removed and were fixed in 3.7% formaldehyde. Cell migration was visualized by staining the filters overnight in Gill's Hematoxylin. The number of migrating cells were scored by counting stained cells on the migrating side of the filter per high power magnification field. (See FIG. 15).

Row | Molecule | inhibition of hematopoiesis and cell growth (colony formation) by deletion series peptides [1] | inhibition of colony formation ([2]; 1 μg/ml VP2 capsid, FIG. 4) | colony formation, % of the control ([2]; 30 μg/mL, FIG. 5) | inhibition of hematopoietic cell growth ([2]; 30 μg/ml, FIG. 3) | lowest concentration at which inhibition of colony formation of hematopoietic cells was seen ([2]; 11 day colony formation assay, 'as little as' / 'as low as') [µg/mL] | inhibition of colony formation of hematopoietic stem cells compared with VP1/2 capsids ([2]; FIG. 4) | inhibition of endothelial cell proliferation ([3]; 10.0 μg/ml, FIG. 14) | lowest concentration that efficiently inhibits endothelial cell proliferation ([3]; 72 hours, 10.0 ng/ml basic fibroblast growth factor, FIG. 14, 'as low as') [µg/mL] | inhibition of endothelial cell migration compared with other capsid preparations ([4]; FIG. 15) | lowest concentration that effectively inhibited endothelial cell migration ([4]; basic fibroblast growth factor 40 ng/ml, FIG. 15, 'as low as') [µg/mL]
1 | NKGTQQYTDQ (OTHER INFORMATION: Peptide fragments derived from parvovirus capsid particles) [Peptide IV] | significantly inhibit hematopoiesis and cell growth | – | – | – | – | – | – | – | – | –
2 | QQY [Peptide VIII] | significantly inhibit hematopoiesis and cell growth | – | – | – | – | – | – | – | – | –
3 | VP2 capsids: B19 parvovirus capsids having only VP2 (protein) MTSVNSAEASTGAGGGGSNSVKSMWSEGATFSANSVTCTFSRQFLIPYDPEHHYKVFSPAASSCHNASGKEAKVCTISPIMGYSTPWRYLDFNALNLFFSPLEFQHLIENYGSIAPDALTVTISEIAVKDVTDKTGGGVQVTDSTTGRLCMLVDHEYKYPYVLGQGQDTLAPELPIWVYFPPQYAYLTVGDVNTQGISGDSKKLASEESAFYVLEHSSFQLLGTGGTASMSYKFPPVPPENLEGCSQHFYEMYNPLYGSRLGVPDTLGGDPKFRSLTHEDHAIQPQNFMPGPLVNSVSTKEGDSSNTGAGKALTGLSTGTSQNTRISLRPGPVSQPYHHWDTDKYVTGINAISHGQTTYGNAEDKEYQQGVGRFPNEKEQLKQLQGLNMHTYFPNKGTQQYTDQIERPLMVGSVWNRRALHYESQLWSKIPNLDDSFKTQFAALGGWGLHQPPPQIFLKILPQSGPIGGIKSMGITTLVQYAVGIMTVTMTFKLGPRKATGRWNPQPGVYPPHAAGHLPYVLYDPTATDAKQHHRHGYEKPEELWTAKSRVHPL | – | Approximately 50% | less than 30 % of the control | significant inhibition | 3 | as effectively as VP1/2 capsids | significant inhibition | 1.0 | significantly more potent than that observed with either native capsids (VP1/2) or capsids having only VP1 | 1
